Assay results published in the Human Domainome abundance scans (Beltran et al. 2025).
± gives the uncertainty stated by the source.

Assay: abundance fitness (aPCA) (normalised: wild type 0, dead -1); higher = more abundant; growth selection in yeast, the domain comes from the species named
Settings: Homo sapiens

“Scaffold attachment factor B2 I36M, Q14151” and “Scaffold attachment factor B2 I36N, Q14151” are within error of each other in abundance fitness: 0.043 ± 0.17 for the first, -0.073 ± 0.13 for the second.

“Scaffold attachment factor B2 I36P, Q14151” and “Scaffold attachment factor B2 I36Q, Q14151” are within error of each other in abundance fitness: 0.067 ± 0.096 for the first, 0.08 ± 0.12 for the second.

“Scaffold attachment factor B2 I36R, Q14151” and “Scaffold attachment factor B2 I36S, Q14151” are within error of each other in abundance fitness: 0.079 ± 0.071 for the first, 0.127 ± 0.081 for the second.

“Scaffold attachment factor B2 I36T, Q14151” and “Scaffold attachment factor B2 I36V, Q14151” are within error of each other in abundance fitness: 0.173 ± 0.12 for the first, -0.002 ± 0.091 for the second.

First: Scaffold attachment factor B2 K43A, Q14151
Second: Scaffold attachment factor B2 K43C, Q14151
The abundance fitness of the first is higher: 0.022 ± 0.097 for the first, -0.271 ± 0.12 for the second.

“Scaffold attachment factor B2 K43D, Q14151” and “Scaffold attachment factor B2 K43E, Q14151” are within error of each other in abundance fitness: -0.147 ± 0.11 for the first, -0.071 ± 0.084 for the second.

Going from “Scaffold attachment factor B2 K43F, Q14151” to “Scaffold attachment factor B2 K43G, Q14151”, the abundance fitness rises from -0.601 ± 0.15 to -0.172 ± 0.074.

First: Scaffold attachment factor B2 K43I, Q14151
Second: Scaffold attachment factor B2 K43L, Q14151
The abundance fitness of the first is lower: -0.599 ± 0.17 for the first, -0.191 ± 0.089 for the second.

“Scaffold attachment factor B2 K43N, Q14151” and “Scaffold attachment factor B2 K43P, Q14151” are within error of each other in abundance fitness: -0.367 ± 0.2 for the first, -0.486 ± 0.12 for the second.

“Scaffold attachment factor B2 K43Q, Q14151” and “Scaffold attachment factor B2 K43R, Q14151” are within error of each other in abundance fitness: -0.124 ± 0.096 for the first, -0.104 ± 0.076 for the second.

“Scaffold attachment factor B2 K43S, Q14151” and “Scaffold attachment factor B2 K43T, Q14151” are within error of each other in abundance fitness: -0.057 ± 0.091 for the first, -0.217 ± 0.1 for the second.

Compared with “Scaffold attachment factor B2 K43V, Q14151”, “Scaffold attachment factor B2 K43W, Q14151” is lower in abundance fitness: -0.149 ± 0.1 for the first, -0.359 ± 0.094 for the second.

Compared with “Scaffold attachment factor B2 K43Y, Q14151”, “Scaffold attachment factor B2 K44A, Q14151” is higher in abundance fitness: -0.961 ± 0.25 for the first, -0.067 ± 0.08 for the second.

“Scaffold attachment factor B2 K44C, Q14151” and “Scaffold attachment factor B2 K44D, Q14151” are within error of each other in abundance fitness: -0.48 ± 0.12 for the first, -0.549 ± 0.19 for the second.

First: Scaffold attachment factor B2 K44E, Q14151
Second: Scaffold attachment factor B2 K44F, Q14151
The abundance fitness of the first is higher: -0.219 ± 0.091 for the first, -0.61 ± 0.12 for the second.

“Scaffold attachment factor B2 K44G, Q14151” and “Scaffold attachment factor B2 K44L, Q14151” are within error of each other in abundance fitness: -0.225 ± 0.072 for the first, -0.256 ± 0.11 for the second.

“Scaffold attachment factor B2 K44M, Q14151” and “Scaffold attachment factor B2 K44N, Q14151” are within error of each other in abundance fitness: -0.379 ± 0.14 for the first, -0.27 ± 0.13 for the second.

Going from “Scaffold attachment factor B2 K44P, Q14151” to “Scaffold attachment factor B2 K44Q, Q14151”, the abundance fitness rises from -0.509 ± 0.088 to -0.1 ± 0.18.

“Scaffold attachment factor B2 K44R, Q14151” and “Scaffold attachment factor B2 K44S, Q14151” are within error of each other in abundance fitness: -0.06 ± 0.071 for the first, -0.183 ± 0.083 for the second.

“Scaffold attachment factor B2 K44T, Q14151” and “Scaffold attachment factor B2 K44V, Q14151” are within error of each other in abundance fitness: -0.347 ± 0.1 for the first, -0.221 ± 0.084 for the second.

“Scaffold attachment factor B2 K44W, Q14151” and “Scaffold attachment factor B2 K44Y, Q14151” are within error of each other in abundance fitness: -0.508 ± 0.081 for the first, -0.494 ± 0.15 for the second.

“Scaffold attachment factor B2 K53A, Q14151” and “Scaffold attachment factor B2 K53C, Q14151” are within error of each other in abundance fitness: -0.516 ± 0.08 for the first, -0.368 ± 0.081 for the second.

Compared with “Scaffold attachment factor B2 K53D, Q14151”, “Scaffold attachment factor B2 K53E, Q14151” is higher in abundance fitness: -0.716 ± 0.22 for the first, -0.136 ± 0.091 for the second.

“Scaffold attachment factor B2 K53F, Q14151” and “Scaffold attachment factor B2 K53G, Q14151” are within error of each other in abundance fitness: -0.445 ± 0.13 for the first, -0.473 ± 0.076 for the second.

“Scaffold attachment factor B2 K53L, Q14151” and “Scaffold attachment factor B2 K53M, Q14151” are within error of each other in abundance fitness: -0.326 ± 0.078 for the first, -0.338 ± 0.11 for the second.

Compared with “Scaffold attachment factor B2 K53N, Q14151”, “Scaffold attachment factor B2 K53P, Q14151” is higher in abundance fitness: -0.463 ± 0.14 for the first, -0.204 ± 0.099 for the second.

Going from “Scaffold attachment factor B2 K53Q, Q14151” to “Scaffold attachment factor B2 K53R, Q14151”, the abundance fitness rises from -0.274 ± 0.12 to -0.047 ± 0.085.

“Scaffold attachment factor B2 K53T, Q14151” gave an abundance fitness of -0.352 ± 0.11.
